What all share (conditions): 20 nM; 72 h
Data set [1] has as its system MCF10A. Description: percent viability (nuclei count relative to siNT); higher = more viable cells. The procedure: (§1)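 After 72 h, cells were fixed and stained with Hoechst and anti-fibrillarin, and nucleoli per nucleus were counted with CellProfiler. Values are plate-adjusted percent effect for the one-nucleolus and 5+ nucleoli phenotypes, normalised to siNT (0%) and to the positive controls siNOL11 or siKIF11 (100%), as the mean of biological triplicates. Percent viability is the nuclei count relative to siNT.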

The subject of data set [2] is MCF10A. Description: one-nucleolus phenotype percent effect (relative to siNT 0% and siNOL11 100%); higher = more cells with one nucleolus (ribosome biogenesis inhibition). The procedure:
as §1

Data set [3] concerns MCF10A. Briefly: 5+ nucleoli phenotype percent effect (relative to siNT 0% and siKIF11 100%); higher = more cells with five or more nucleoli. How it is done:
as §1

Experimental findings from the supplement of paper PMC10899765 are described below.

With CUUGGUUCAGGGAGGGUCCCCA [hsa-miR-659-3p], the percent viability in data set [1] turned out to be 34.6%. The “one-nucleolus phenotype percent effect” value in data set [2] worked out at 37.6%. In addition, the “5+ nucleoli phenotype percent effect” value in data set [3] is -6.48%.

Consider GGGGGUCCCCGGUGCUCGGAUC [hsa-miR-615-5p], for which the percent viability in data set [1] worked out at 137%. For the same sequence, the “one-nucleolus phenotype percent effect” value in data set [2] was -20%. The “5+ nucleoli phenotype percent effect” value in data set [3] was determined as 33.1%.

In the case of “UGAGUGGGGCUCCCGGGACGGCG [hsa-miR-4745-5p]”, the percent viability in data set [1] turned out to be 57.7%. For the same sequence, in data set [2], the “one-nucleolus phenotype percent effect” value is -8.18%. For the same sequence, the “5+ nucleoli phenotype percent effect” value in data set [3] came to 25%.

For the sequence “GCAUGUGAUGAAGCAAAUCAGU [hsa-miR-3607-5p]”, in data set [1], the percent viability stood at 52.8%. Besides, the “one-nucleolus phenotype percent effect” value in data set [2] is -2.14%. The “5+ nucleoli phenotype percent effect” value in data set [3] was -8.33%.

For the sequence “CACUUAGCAGGUUGUAUUAUAU [hsa-miR-374c-3p]”, in data set [1], the percent viability was determined as 50.7%. Moreover, the “one-nucleolus phenotype percent effect” value in data set [2] worked out at 0.51%. In addition, in data set [3], the “5+ nucleoli phenotype percent effect” value worked out at 0.0114%.

Take CCCCAGGGCGACGCGGCGGG [hsa-miR-1915-3p]: in data set [1], the percent viability turned out to be 87.8%. In addition, the “one-nucleolus phenotype percent effect” value in data set [2] was -13.1%. Moreover, the “5+ nucleoli phenotype percent effect” value in data set [3] came to 42.5%.

“CAGCAGGGGAGAGAGAGGAGUC [hsa-miR-6510-5p]”: the percent viability in data set [1] turned out to be 27.9%. In data set [2], the “one-nucleolus phenotype percent effect” value was determined as 20.8%. Further, in data set [3], the “5+ nucleoli phenotype percent effect” value is -10.7%.

As to AGGAUUUCAGAAAUACUGGUGU [hsa-miR-3167], the percent viability in data set [1] was 49.1%. Also, the “one-nucleolus phenotype percent effect” value in data set [2] was -14.6%. In data set [3], the “5+ nucleoli phenotype percent effect” value was -10.4%.

As for UCUAGAAAUGCAUGACCCACC [hsa-miR-6508-5p], the percent viability in data set [1] stood at 112%. In addition, the “one-nucleolus phenotype percent effect” value in data set [2] is -15.2%. Also, the “5+ nucleoli phenotype percent effect” value in data set [3] was determined as 17.2%.

Regarding “AACAUCACUGCAAGUCUUAACA [hsa-miR-499b-3p]”, the percent viability in data set [1] stood at 77%. The “one-nucleolus phenotype percent effect” value in data set [2] is -24.7%. The “5+ nucleoli phenotype percent effect” value in data set [3] is -7.16%.

As to GCGGUGGGGCCGGAGGGGCGU [hsa-miR-6786-5p], the percent viability in data set [1] stood at 96.7%. Besides, the “one-nucleolus phenotype percent effect” value in data set [2] is -24.9%. The “5+ nucleoli phenotype percent effect” value in data set [3] was found to be 31.9%.

For the sequence GAAAGCGCUUCUCUUUAGAGG [hsa-miR-518f-3p], the percent viability in data set [1] is 63.6%. Also, the “one-nucleolus phenotype percent effect” value in data set [2] turned out to be 17.1%. The “5+ nucleoli phenotype percent effect” value in data set [3] is -8.13%.

Regarding UUAGAACGUUUUAGGGUCAAAU [hsa-miR-5687], the percent viability in data set [1] was determined as 50.5%. Besides, the “one-nucleolus phenotype percent effect” value in data set [2] was -12.4%. For the same sequence, the “5+ nucleoli phenotype percent effect” value in data set [3] came out at 16.2%.

For “GUGAGCCAGUGGAAUGGAGAGG [hsa-miR-6807-5p]”, in data set [1], the percent viability came out at 74.2%. In addition, the “one-nucleolus phenotype percent effect” value in data set [2] is -20.6%. Also, in data set [3], the “5+ nucleoli phenotype percent effect” value was 16.4%.

On to CUGCCUGUUCUUCCACUCCAG [hsa-miR-6514-3p], for which the percent viability in data set [1] turned out to be 9.75%. Besides, in data set [2], the “one-nucleolus phenotype percent effect” value was determined as 59.9%. Besides, in data set [3], the “5+ nucleoli phenotype percent effect” value was -62.1%.

As to CAUGCUAGGAUAGAAAGAAUGG [hsa-miR-3146], the percent viability in data set [1] worked out at 30.5%. For the same sequence, the “one-nucleolus phenotype percent effect” value in data set [2] turned out to be 15.7%. Further, the “5+ nucleoli phenotype percent effect” value in data set [3] is -22.8%.

In the case of “CUCUCUGGCCGUCUACCUUCCA [hsa-miR-3191-5p]”, in data set [1], the percent viability is 31.4%. Also, the “one-nucleolus phenotype percent effect” value in data set [2] is 46.1%. The “5+ nucleoli phenotype percent effect” value in data set [3] is -62.4%.

For GCGGAGAGAGAAUGGGGAGC [hsa-miR-5739], the percent viability in data set [1] came to 110%. In addition, the “one-nucleolus phenotype percent effect” value in data set [2] is -16.4%. The “5+ nucleoli phenotype percent effect” value in data set [3] stood at 53.5%.

On to UACUUGGAAAGGCAUCAGUUG [hsa-miR-890], for which, in data set [1], the percent viability is 21%. Also, the “one-nucleolus phenotype percent effect” value in data set [2] worked out at 49.1%. The “5+ nucleoli phenotype percent effect” value in data set [3] was -34.1%.

On to “CAAAAACUGCAAUUACUUUUGC [hsa-miR-548aq-3p]”, for which, in data set [1], the percent viability came out at 115%. For the same sequence, the “one-nucleolus phenotype percent effect” value in data set [2] is -26.6%. Besides, the “5+ nucleoli phenotype percent effect” value in data set [3] was determined as 13.8%.

As for GCCUCUCUCGGAGUCGCUCGGA [hsa-miR-3183], the percent viability in data set [1] came out at 77.6%. For the same sequence, the “one-nucleolus phenotype percent effect” value in data set [2] is -23.3%. In data set [3], the “5+ nucleoli phenotype percent effect” value is 40%.

For the sequence UCAAGUGUCAUCUGUCCCUAG [hsa-miR-6513-3p], the percent viability in data set [1] came to 126%. The “one-nucleolus phenotype percent effect” value in data set [2] is -7.47%. Moreover, in data set [3], the “5+ nucleoli phenotype percent effect” value came out at 42.1%.

Take CUUCUCUUCUCUCCUUCCCAG [hsa-miR-6809-3p]: the percent viability in data set [1] turned out to be 31%. Also, in data set [2], the “one-nucleolus phenotype percent effect” value turned out to be 17.9%. Further, the “5+ nucleoli phenotype percent effect” value in data set [3] is -23.7%.

On to “CACUGUUUCACCACUGGCUCUU [hsa-miR-4676-3p]”, for which the percent viability in data set [1] was 49.2%. Moreover, in data set [2], the “one-nucleolus phenotype percent effect” value was -8.83%. Moreover, in data set [3], the “5+ nucleoli phenotype percent effect” value was 18.4%.
